Molecular target: the molecule itself
Test: cryo-EM structure; ClpB hexamer with a 20-fold molar excess of casein, 10 min at room temperature in 25 mM Tris-HCl pH 7.4, 25 mM KCl, 10 mM MgCl2, 2 mM ATPγS, 1 mM DTT; single-particle cryo-EM

B1: ClpB-DWB-K476C (natural protein)
chain: not shown
notes: ClpB, bacterial disaggregase, with K476C (M-domain) and the double Walker B mutations E279A/E678A; ATPase-deficient variant used to trap substrate for cryo-EM in the presence of ATPγS; also called ClpB-K476C-DWB; ClpB-K476C/E279A/E678A; source: E. coli ΔclpB::kan cells, purified (Ni-IDA, size exclusion chromatography Superdex S200)
B1 was tested, and the “stoichiometry N” value was 6.

Reference: PMC6593972, “Two-Step Activation Mechanism of the ClpB Disaggregase for Sequential Substrate Threading by the Main ATPase Motor” (Cell Reports, 2019)
